T1: ヒト組織因子経路インヒビター (human TFPI) (human, UniProt P10646 29-304, limits assumed)
T1 construct: Coated on Maxisorp plates (ELISA) or amine-coupled to a CM5 chip (Biacore); also called ヒトTFPI; hTFPI
T1 sequence (looked up): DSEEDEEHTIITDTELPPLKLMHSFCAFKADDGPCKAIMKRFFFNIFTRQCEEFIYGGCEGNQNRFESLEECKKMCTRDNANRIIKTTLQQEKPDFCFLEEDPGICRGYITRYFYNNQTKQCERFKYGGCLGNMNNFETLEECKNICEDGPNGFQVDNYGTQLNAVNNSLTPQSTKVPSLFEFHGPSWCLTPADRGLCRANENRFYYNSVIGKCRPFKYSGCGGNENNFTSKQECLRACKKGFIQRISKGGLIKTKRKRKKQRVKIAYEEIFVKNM

T2: マウスTFPI (mouse TFPI) (mouse, UniProt O54819 29-289, limits assumed)
T2 construct: Coated on plates (ELISA) or amine-coupled to a CM5 chip (Biacore); also called mTFPI; m-TFPI
T2 sequence (looked up): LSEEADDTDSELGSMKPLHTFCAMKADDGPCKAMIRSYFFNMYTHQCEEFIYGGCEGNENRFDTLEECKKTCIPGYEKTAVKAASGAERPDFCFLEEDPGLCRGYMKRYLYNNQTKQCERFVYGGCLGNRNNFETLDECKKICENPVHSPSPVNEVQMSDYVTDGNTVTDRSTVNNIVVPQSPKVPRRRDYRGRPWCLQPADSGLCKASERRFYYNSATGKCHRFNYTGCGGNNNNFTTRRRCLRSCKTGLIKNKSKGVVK

B1: TP-3D3 (Fab, V domains shown)
VH: QVQLVESGGGLVQPGGSLRLSCAASGFTFSSYASWVRQAPGKGLEWVSGISGDGSNTHYADSVKGRFTISRDNSKNTLYLQMNSLRAEDTAVYYCARYDNFYFDVWGQGTLVTVSS
VL: DIELTQPPSVSVAPGQTARISCSGDSLGSKFAHWYQQKPGQAPVLVIYDDSNRPSGIPERFSGSNSGNTATLTISGTQAEDEADYYCSTYTSRSHSYVFGGGTKLTVLG
notes: Human Fab (HuCal Gold), made in E. coli TG1
B2: TP-3E1 (Fab, V domains shown)
VH: QVQLVESGGGLVQPGGSLRLSCAASGFTFSNYAMTWVRQAPGKGLEWVSVISSVGSNTYYADSVKGRFTISRDNSKNTLYLQMNSLRAEDTAVYYCARPTKAGRTWWWGPYMDVWGQGTLVTVSS
VL: DIELTQPPSVSVAPGQTARISCSGDNIGSYYAYWYQQKPGQAPVLVIYDDSNRPSGIPERFSGSNSGNTATLTISGTQAEDEADYYCQSYDSTGLLVFGGGTKLTVLG
notes: as for B1
B3: TP-3F1 (Fab, V domains shown)
VH: QVQLVQSGAEVKKPGESLKISCKGSGYSFTDYWIGWVRQMPGKGLEWMGIIQPSDSDTNYSPSFQGQVTISADKSISTAYLQWSSLKASDTAMYYCARFMWWGKYDSGFDVWGQGTLVTVSS
VL: DIELTQPPSVSVAPGQTARISCSGDNIGSYFASWYQQKPGQAPVLVIYDDSNRPSGIPERFSGSNSGNTATLTISGTQAEDEADYYCEGSNVFGGGTKLTVLG
notes: as for B1
B4: TP-3F2 (Fab, V domains shown)
VH: QVQLVESGGGLVQPGGSLRLSCAASGFTFSSYSMHWVRQAPGKGLEWVSGISYSSSFTYYADSVKGRFTISRDNSKNTLYLQMNSLRAEDTAVYYCARALGGGVDYWGQGTLVTVSS
VL: DIELTQPPSVSVAPGQTARISCSGDNLPSKSVYWYQQKPGQAPVLVIYGDNNRPSGIPERFSGSNSGNTATLTISGTQAEDEADYYCQSWTSRPMVVFGGGTKLTVLG
notes: as for B1
B5: TP-3G1 (Fab, V domains shown)
VH: QVQLQQSGPGLVKPSQTLSLTCAISGDSVSSNSGGWGWIRQSPGRGLEWLGLIYYRSKWYNAYAVSVKSRITINPDTSKNQFSLQLNSVTPEDTAVYYCARYLGSNFYVYSDVWGQGTLVTVSS
VL: DIQMTQSPSSLSASVGDRVTITCRASQGISSYLHWYQQKPGKAPKLLIYGASTLQSGVPSRFSGSGSGTDFTLTISSLQPEDFATYYCQQQNGYPFTFGQGTKVEIKR
notes: as for B1
B6: TP-3G3 (Fab, V domains shown)
VH: QVQLVESGGGLVQPGGSLRLSCAASGFTFSSYSMSWVRQAPGKGLEWVSSISSSSSNTYYGDSVKGRFTISRDNSKNTLYLQMNSLRAEDTAVYYCARMHYKGMDIWGQGTLVTVSS
VL: DIQMTQSPSSLSASVGDRVTITCRASQNIHSHLNWYQQKPGKAPKLLIYDASSLQSGVPSRFSGSGSGTDFTLTISSLQPEDFAVYYCQQYYDYPLTFGQGTKVEIKR
notes: as for B1
B7: TP-3H2 (Fab, V domains shown)
VH: QVQLVESGGGLVQPGGSLRLSCAASGFTFNSYYMSWVRQAPGKGLEWVSNISSSGSNTNYADSVKGRFTISRDNSKNTLYLQMNSLRAEDTAVYYCARVHYGFDFWGQGTLVTVSS
VL: DIELTQPPSVSVAPGQTARISCSGDKLGKYYAYWYQQKPGQAPVLVIYGDSKRPSGIPERFSGSNSGNTATLTISGTQAEDEADYYCSSAAFGSTVFGGGTKLTVLG
notes: as for B1
B8: TP-4A7 (Fab, V domains shown)
VH: QVQLVESGGGLVQPGGSLRLSCAASGFTFRNYAMNWVRQAPGKGLEWVSVISGSSSYTYYADSVKGRFTISRDNSKNTLYLQMNSLRAEDTAVYYCARADLPYMVFDYWGQGTLVTVSS
VL: DIELTQPPSVSVAPGQTARISCSGDALGSKFAHWYQQKPGQAPVLVIYDDSERPSGIPERFSGSNSGNTATLTISGTQAEDEADYYCQAYDSGLLYVFGGGTKLTVLG
notes: as for B1
B9: TP-2A8 (Fab, V domains shown)
VH: QVQLVESGGGLVQPGGSLRLSCAASGFTFRSYGMSWVRQAPGKGLEWVSSIRGSSSSTYYADSVKGRFTISRDNSKNTLYLQMNSLRAEDTAVYYCARKYRYWFDYWGQGTLVTVSS
VL: DIELTQPPSVSVAPGQTARISCSGDNLRNYYAHWYQQKPGQAPVVVIYYDNNRPSGIPERFSGSNSGNTATLTISGTQAEDEADYYCQSWDDGVPVFGGGTKLTVLG
notes: Human Fab (HuCal Gold), made in E. coli TG1; also called Fab-2A8; TP-2A8-Fab
B10: TP-4B7 (Fab, V domains shown)
VH: QVQLQQSGPGLVKPSQTLSLTCAISGDSVSSNSAAWSWIRQSPGRGLEWLGIIYKRSKWYNDYAVSVKSRITINPDTSKNQFSLQLNSVTPEDTAVYYCARWHSDKHWGFDYWGQGTLVTVSS
VL: DIVMTQSPLSLPVTPGEPASISCRSSQSLVFSDGNTYLNWYLQKPGQSPQLLIYKGSNRASGVPDRFSGSGSGTDFTLKISRVEAEDVGVYYCQQYDSYPLTFGQGTKVEIKR
notes: as for B1
B11: TP-2A10 (Fab, V domains shown)
VH: QVQLVESGGGLVQPGGSLRLSCAASGFTFTSYSMNWVRQAPGKGLEWVSAISYTGSNTHYADSVKGRFTISRDNSKNTLYLQMNSLRAEDTAVYYCARAFLGYKESYFDIWGQGTLVTVSS
VL: DIELTQPPSVSVAPGQTARISCSGDKLGKKYVHWYQQKPGQAPVLVIYGDDKRPSGIPERFSGSNSGNTATLTISGTQAEDEADYYCQAWGSISRFVFGGGTKLTVLG
notes: as for B1
B12: TP-2G6 (Fab, V domains shown)
VH: QVQLQQSGPGLVKPSQTLSLTCAISGDSVSSSSAAWSWIRQSPGRGLEWLGIIYYRSKWYNDYAVSVKSRITINPDTSKNQFSLQLNSVTPEDTAVYYCARHSMVGFDVWGQGTLVTVSS
VL: DIVLTQSPATLSLSPGERATLSCRASQYVTSSYLAWYQQKPGQAPRLLIYGSSRATGVPARFSGSGSGTDFTLTISSLEPEDFATYYCQQYSSSPITFGQGTKVEIKR
notes: Human Fab (HuCal Gold), made in E. coli TG1; also called 2G6-Fab
B13: 2G6-IgG (antibody, V domains shown)
VH: QVQLQQSGPGLVKPSQTLSLTCAISGDSVSSSSAAWSWIRQSPGRGLEWLGIIYYRSKWYNDYAVSVKSRITINPDTSKNQFSLQLNSVTPEDTAVYYCARHSMVGFDVWGQGTLVTVSS
VL: DIVLTQSPATLSLSPGERATLSCRASQYVTSSYLAWYQQKPGQAPRLLIYGSSRATGVPARFSGSGSGTDFTLTISSLEPEDFATYYCQQYSSSPITFGQGTKVEIKR
notes: also called IgG-2G6; TP-2G6 after conversion to IgG
B14: TP-2B1 (Fab, V domains shown)
VH: QVQLVESGGGLVQPGGSLRLSCAASGFTFSSYSMSWVRQASGKGLEWVSSIKGSGSNTYYADSVKGRFTISRDNSKNTLYLQMNSLRAEDTAVYYCARNGGLIDVWGQGTLVTVSS
VL: DIELTQPPSVSVAPGQTARISCSGDNLGNKYAHWYQQKPGQAPVLVIYYDNKRPSGIPERFSGSNSGNTATLTISGTQAEDEADYYCQSWTPGSNTMVFGGGTRLTVLG
notes: as for B1
B15: TP-2B3 (Fab, V domains shown)
VH: QVQLQQSGPGLVKPSQTLSLTCAISGDSVSSNSAAWGWIRQSPGRGLEWLGMIYYRSKWYNSYAVSVKSRITINPDTSKNQFSLQLNSVTPEDTAVYYCARTMSKYGGPGMDVWGQGTLVTVSS
VL: DIVLTQSPATLSLSPGERATLSCRASQNIGSNYLAWYQQKPGQAPRLLIYGASTRATGVPARFNGSGSGTDFTLTISSLEPEDFAVYYCQQLNSIPVTFGQGTKVEIKR
notes: as for B1
B16: TP-2B4 (Fab, V domains shown)
VH: QVQLVESGGGLVQPGGSLRLSCAASGFTFSNYSMTWVRQAPGKGLEWVSGISYNGSNTYYADSVKGRFTISRDNSKNTLYLQMNSLRAEDTAVYYCARIYYMNLLAGWGQGTLVTVSS
VL: DIELTQPPSVSVAPGQTARISCSGDALGTYYAYWYQQKPGQAPVLVIYGDMNRPSGIPERFSGSNSGNTATLTISGTQAEDEADYYCQSYDAGVKPAVFGGGTKLTVLG
notes: as for B1
B17: TP-2B8 (Fab, V domains shown)
VH: QVQLVQSGAEVKKPGASVKVSCKASGYTFTGNSMHWVRQAPGQGLEWMGTIFPYDGTTKYAQKFQGRVTMTRDTSISTAYMELSSLRSEDTAVYYCARGVHSYFDYWGQGTLVTVSS
VL: DIELTQPPSVSVAPGQTARISCSGDNLRGYYASWYQQKPGQAPVLVIYEDNNRPSGIPERFSGSNSGNTATLTISGTQAEDEADYYCQSWDSPYVHVFGGGTKLTVLG
notes: as for B1

Legend:
[1] = target: T1, ヒト組織因子経路インヒビター (human TFPI); assay: ELISA, Fab in bacterial lysate on human TFPI-coated plate
マウスTFPI (mouse TFPI) [2] = target: T2, マウスTFPI (mouse TFPI); assay: ELISA on mouse TFPI-coated plate
[3] = target: T1, ヒト組織因子経路インヒビター (human TFPI); assay: ELISA on human TFPI-coated plate
マウスTFPI (mouse TFPI) [4] = target: T2, マウスTFPI (mouse TFPI); assay: ELISA on mouse TFPI-coated plate; IgG against the Fab
[5] = target: T1, ヒト組織因子経路インヒビター (human TFPI); assay: ELISA on human TFPI-coated plate; IgG against the Fab

Binder	binding result [1]	also measured
B1	binds	–
B2	binds	–
B3	binds	–
B4	binds	–
B5	binds	–
B6	binds	–
B7	binds	–
B8	binds	–
B9	binds	–
B10	binds	–
B11	binds	–
B12	–	EC50 (マウスTFPI (mouse TFPI) [2]): 5.18 nM; EC50 [3]: 0.48 nM
B13	–	fold change of EC50 against 2G6-Fab (マウスTFPI (mouse TFPI) [4]): 10 倍; EC50 (マウスTFPI (mouse TFPI) [2]): 0.51 nM; EC50 [3]: 0.22 nM; fold change of EC50 against 2G6-Fab [5]: 2 倍
B14	binds	–
B15	binds	–
B16	binds	–
B17	binds	–
